# B1: 抗体12B5(IgG) (antibody, from another filing)
# scFv: QVQLVQSGGGLVRPGGSLSLSCAVSGITLRTYGMHWVRQAPGKGLEWVAGISFDGRSEYYADSVQGRFTISRDSSKNTLYLQMNSLRAEDTAVYYCARGAHYGFDIWGQGTMVTVSSGGGGTGGGGSGGGGSDIQMTQSPSTLSASIGDRVTITCRASEGIYHWLAWYQQKPGKAPKLLIYKASSLASGAPSRFSGSGSGTDFTLTISSLQPDDFATYYCQQYSNYPLTFGGGTKLEIK
# Tests used:
# [1] = molecular target: 人TPO受体(MPL)，表达于Ba/F3细胞 (human) (UniProt P40238); assay: cell-based or functional assay
# [2] = molecular target: 人TPO受体(MPL)，表达于Ba/F3细胞 (human) (UniProt P40238); assay: cell-based or functional assay; remark: listed apart in the source
Molecule,ED50，BaF/mpl细胞增殖(WST-8) [1] [nM],ED50，TPO样激动剂活性(BaF/mpl细胞增殖，WST-8) [2] [nM]
人TPO(R&D Systems) (from UniProt P40225 22-353) (ligand),0.027,–
B1,–,29

# — patent CN101007849A
